Assay results taken from publication PMC5177931.

Molecular target: T1, Myc-tagged PDC E1, P08559
T1 chain: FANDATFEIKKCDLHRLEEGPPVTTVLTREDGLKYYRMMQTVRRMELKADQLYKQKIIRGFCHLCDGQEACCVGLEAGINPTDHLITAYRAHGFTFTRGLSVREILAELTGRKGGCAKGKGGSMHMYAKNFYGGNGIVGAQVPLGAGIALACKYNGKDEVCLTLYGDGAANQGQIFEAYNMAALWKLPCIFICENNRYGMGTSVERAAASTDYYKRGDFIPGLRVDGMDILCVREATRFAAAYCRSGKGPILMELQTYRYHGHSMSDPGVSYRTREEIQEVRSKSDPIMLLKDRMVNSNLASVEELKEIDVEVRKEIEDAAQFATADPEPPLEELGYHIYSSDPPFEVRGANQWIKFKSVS
Experiment: co-immunoprecipitation (anti-Myc IP, western blot for Flag-STAT3), band intensity printed under lanes
Details: chain shown with the change; 293T cells, transient transfection; printed intensities relative to EV lane = 1; parent: 9.5

response: 2.4
B1: Flag-STAT3 WT, P40763 K685R; K707R; K709R (protein)
chain: MAQWNQLQQLDTRYLEQLHQLYSDSFPMELRQFLAPWIESQDWAYAASKESHATLVFHNLLGEIDQQYSRFLQESNVLYQHNLRRIKQFLQSRYLEKPMEIARIVARCLWEESRLLQTAATAAQQGGQANHPTAAVVTEKQQMLEQHLQDVRKRVQDLEQKMKVVENLQDDFDFNYKTLKSQGDMQDLNGNNQSVTRQKMQQLEQMLTALDQMRRSIVSELAGLLSAMEYVQKTLTDEELADWKRRQQIACIGGPPNICLDRLENWITSLAESQLQTRQQIKKLEELQQKVSYKGDPIVQHRPMLEERIVELFRNLMKSAFVVERQPCMPMHPDRPLVIKTGVQFTTKVRLLVKFPELNYQLKIKVCIDKDSGDVAALRGSRKFNILGTNTKVMNMEESNNGSLSAEFKHLTLREQRCGNGGRANCDASLIVTEELHLITFETEVYHQGLKIDLETHSLPVVVISNICQMPNAWASILWYNMLTNNPKNVNFFTKPPIGTWDQVAEVLSWQFSSTTKRGLSIEQLTTLAEKLLGPGVNYSGCQITWAKFCKENMAGKGFSFWVWLDNIIDLVKKYILALWNEGYIMGFISKERERAILSTKPPGTFLLRFSESSKEGGVTFTWVEKDISGKTQIQSVEPYTKQQLNNMSFAEIIMGYKIMDATNILVSPLVYLYPDIPKEEAFGRYCRPESQEHPEADPGSAAPYLRTRFICVTPTTCSNTIDLPMSPRTLDSLMQFGNNGEGAEPSAGGQFESLTFDMELTSECATSPM
